{"source": "patent US20210145976A1", "data": [{"target": "human serum albumin (human) (UniProt P02768)", "sequence (P02768 25-609 limits assumed)": "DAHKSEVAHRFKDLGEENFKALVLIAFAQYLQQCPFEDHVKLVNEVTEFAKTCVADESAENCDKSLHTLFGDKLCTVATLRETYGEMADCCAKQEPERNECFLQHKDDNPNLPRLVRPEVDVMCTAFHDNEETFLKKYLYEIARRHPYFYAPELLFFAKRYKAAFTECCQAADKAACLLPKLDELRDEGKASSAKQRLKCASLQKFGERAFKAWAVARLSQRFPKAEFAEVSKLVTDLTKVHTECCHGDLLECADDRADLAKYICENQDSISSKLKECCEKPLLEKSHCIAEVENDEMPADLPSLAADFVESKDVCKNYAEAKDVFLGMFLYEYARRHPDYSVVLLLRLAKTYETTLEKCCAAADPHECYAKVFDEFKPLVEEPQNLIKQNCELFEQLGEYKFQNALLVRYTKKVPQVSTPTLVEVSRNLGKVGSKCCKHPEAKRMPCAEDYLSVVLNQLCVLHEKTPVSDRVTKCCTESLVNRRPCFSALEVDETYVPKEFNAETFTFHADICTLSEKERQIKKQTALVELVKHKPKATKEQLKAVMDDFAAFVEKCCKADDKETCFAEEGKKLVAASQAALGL", "assay": "screening ELISA", "values": [{"binder": "SEQ ID NO 259 (designed binder) MLPAPKNLVVSRVTEDSARLSWTAPDAAFDSFTIEYFEFVDAGEAIVLTVPGSERSYDLTGLKPGTEYWVEIWGVKGGSWSKPLSAIFTT", "HSA": 2100}, {"binder": "SEQ ID NO 55 (designed binder) MLPAPKNLVVSRVTEDSARLSWTAPDAAFDSFIIEYWEFVGYGEAIVLTVPGSERSYDLTGLKPGTEYWVAIYGVKGGDLSKPLSAIFTT", "HSA": 7760}, {"binder": "SEQ ID NO 56 (designed binder) MLPAPKNLVVSRVTEDSARLSWTAPDAAFDSFVIEYFEALEGGEAIVLTVPGSERSYDLTGLKPGTEYFVGIYGVKGGPLSKPLSAIFTT", "HSA": 7520}, {"binder": "SEQ ID NO 299 (designed binder) MLPAPKNLVVSRVTEDSARLSWTAPDAAFDSFLIEYWESVGYGEAIVLTVPGSERSYDLTGLKPGTEYWVGIYGVKGGYYSRPLSAIFTT", "HSA": 2200}, {"binder": "SEQ ID NO 260 (designed binder) MLPAPKNLVVSRVTEDSARLSWTAPDAAFDSFNISYYEYFVHGEAIVLTVPGSERSYDLTGLKPGTEYYVIDGVKGGDPSEPLSAIFTT", "HSA": 14400}, {"binder": "SEQ ID NO 274 (designed binder) MLPAPKNLVVSRVTEDSVRLSWTAPDAAFDSFAISYEEWWVHGEAIVLTVPGSERSYDLTGLKPGTEYSVVIPGVKGGLYSWTLSAISTT", "HSA": 11900}, {"binder": "SEQ ID NO 297 (designed binder) MLPAPKNLVVSRVTEDSARLSWTAPDAAFDSFLIPYAETSPSGEAITLFVPGSERSYDLTGLKPGTEYNVVIQGVKGGRPSNPLVAASTT", "HSA": 52600}, {"binder": "SEQ ID NO 258 (designed binder) MLPAPKNLVVSRVTEDSARLSWTAPDAAFDSFFIPYAEPSPTGEAIVLTVPGSERSYDLTGLKPGTEYDVWIEGVKGGVLSWPLSAIFTT", "HSA": 10600}, {"binder": "SEQ ID NO 294 (designed binder) MLPAPKNLVVSRVTEDSARLSWTAPDAAFDSFSIIYSEWNVTGEAIVLTVPGSERSYDLTGLKPGTEYDVWIEGVKGGGMSKPLSAISTT", "HSA": 8250}, {"binder": "SEQ ID NO 261 (designed binder) MLPAPKNLVVSRVTEDSARLSWTAPDAAFDSFTIVYGEWGVPGEAIVLTVPGSERSYDLTGLKPGTEYDVWIEGVKGGDLSWPLSAIVTT", "HSA": 5550}, {"binder": "SEQ ID NO 271 (designed binder) MLPAPKNLVVSRVTEDSARLSWTAPDAAFDSFYIPYAETRDDGEAIVLTVPGSERSYDLTGLKPGTEYSVLIHGVKGGDLSSPLSAIFTT", "HSA": 3050}, {"binder": "SEQ ID NO 268 (designed binder) MLPAPKNLVVSRVTEDSARLSWTAPDAAFDSFTIVYGEAGAFGEAIVLTVPGSERSYDLTGLKPGTEYDVLIEGVKGGNLSWPLSAIFTT", "HSA": 2550}, {"binder": "SEQ ID NO 285 (designed binder) MLPAPKNLVVSRVTEDSARLSWTAPDAAFDSFLIPYAETSPSGEAIVLTVPGSERSYDLTGLKPGTEYSVLIHGVKGGDYSSPLSAIFTT", "HSA": 2200}, {"binder": "SEQ ID NO 282 (designed binder) MLPAPKNLVVSRVTEDSARLSWTAPDAAFDSFAIVYHEPRPDGEAIVLTVPGSERSYDLTGLKPGTEYEVVILGVKGGVHSYPLSAIFTT", "HSA": 18600}, {"binder": "SEQ ID NO 288 (designed binder) MLPAPKNLVVSRVTEDSARLSWTAPDAAFDSFLIPYAETSPSGEAIVLTVPGSERSYDLTGLKPGTEYSVLIHGVKGGDYSSPLSAISTT", "HSA": 40800}, {"binder": "SEQ ID NO 300 (designed binder) MLPAPKNLVVSRVTEDSARLSWTAPDAAFDSFFIGYLEPQPPGEAIVLTVPGSERSYDLTGLKPGTEYNVTIHGVKGGTPSMPLSAIFTT", "HSA": 4050}, {"binder": "SEQ ID NO 272 (designed binder) MLPAPKNLVVSRVTEDSARLSWTAPDAAFDSFGIPYAESTPTGEAIVLTVPGSERSYDLTGLKPGTEYSVLIHGVKGGHLSDPLSAIFTT", "HSA": 8950}, {"binder": "SEQ ID NO 298 (designed binder) MLPAPKNLVVSRVTEDSARLSWTAPDAAFDSFPIAYAEPRPDGEAIVLTVPGSERSYDLTGLKPGTEYSVLIHGVKGGLLSSPLSAISTT", "HSA": 34000}, {"binder": "SEQ ID NO 283 (designed binder) MLPAPKNLVVSRVTEDSARLSWTAPDAAFDSFPIAYAEPRPDGEAIVLTVPGSERSYDLTGLKPGTEYSVLIHGVKGGLLSSPLSAIFTT", "HSA": 6250}, {"binder": "SEQ ID NO 278 (designed binder) MLPAPKNLVVSRVTEDSARLSWTAPDAAFDSFPIAYAEPRPDGEAIVLTVPGSERSYDLTGLKPGTEYSVLIHGVKGGHLSDPLSAIFTT", "HSA": 6500}, {"binder": "SEQ ID NO 295 (designed binder) MLPAPKNLVVSRVTEDSARLSWTAPDAAFDSFFIGYLEPIPSGEAIVLTVPGSERSYDLTGLKPGTEYPVVIQGVKGGHPSQPLSAIFTT", "HSA": 3800}, {"binder": "SEQ ID NO 267 (designed binder) MLPAPKNLVVSRVTEDSARLSWTAPDAAFDSFPIVYSEIHVIGEAIVLTVPGSERSYDLTGLKPGTEYDVWIEGVKGGHLSEPLSAIFTT", "HSA": 11900}, {"binder": "SEQ ID NO 291 (designed binder) MLPAPKNLVVSRVTEDSARLSWTAPDAAFDSFHIEYEEPETEGEAIYLHVPGSERSYDLTGLKPGTEYKVLIRGVKGGSYSIPLQAPFTT", "HSA": 2150}, {"binder": "SEQ ID NO 286 (designed binder) MLPAPKNLVVSRVTEDSARLSWTAPDAAFDSFNIYYPEFPVRGEAIVLTVPGSERSYDLTGLKPGTEYVVSIWGVKGGTQSWPLSAIFTT", "HSA": 10800}, {"binder": "SEQ ID NO 269 (designed binder) MLPAPKNLVVSRVTEDSARLSWTAPDAAFDSFHINYAEVYTKGEAILLTVPGSERSYDLTGLKPGTEYEVYIPGVKGGPFSRPLNAQFTT", "HSA": 4150}, {"binder": "SEQ ID NO 289 (designed binder) MLPAPKNLVVSRVTEDSARLSWTAPDAAFDSFAIPYYEDTNDGEAIVLTVPGSERSYDLTGLKPGTEYWVSIQGVKGGTVSGPLSAIFTT", "HSA": 2150}, {"binder": "SEQ ID NO 275 (designed binder) MLPAPKNLVVSRVTEDSARLSWTAPDAAFDSFLIAYAEVTLHGEAIVLTVPGSERSYDLTGLKPGTEYSVLIHGVKGGRNSDPLSAIFTT", "HSA": 3800}, {"binder": "SEQ ID NO 290 (designed binder) MLPAPKNLVVSRVTEDSARLSWTAPDAAFDSFFYLEQAWGGEAIVLTVPGSERSYDLTGLKPGTEYWVEITGVKGGYASSPLSAIFTT", "HSA": 11800}, {"binder": "SEQ ID NO 262 (designed binder) MLPAPKNLVVSRVTEDSARLSWTAPDAAFDSFAIEYFEYTGEGEAIVLTVPGSERSYDLTGLKPGTEYYVGIYGVKGGYLSRPLSAIFTT", "HSA": 2350}, {"binder": "SEQ ID NO 277 (designed binder) MLPAPKNLVVSRVTEDSARLSWTAPDAAFDSFWINYYEGIGEGEAIVLTVPGSERSYDLTGLKPGTEYYVDISGVKGGSYSLPLSAIFTT", "HSA": 5200}, {"binder": "SEQ ID NO 54 (designed binder) MLPAPKNLVVSRVTEDSARLSWTAPDAAFDSFQILYQENAFEGEAIVLTVPGSERSYDLTGLKPGTEYWVYIYGVKGGYPSVPLSAIFTT", "HSA": 6160}, {"binder": "SEQ ID NO 279 (designed binder) MLPAPKNLVVSRVTEDSARLSWTAPDAAFDSFSIEYYESVGLGEAIVLTVPGSERSYDLTGLKPGTEYDVSIYGVKGGYLSRPLSAIFTT", "HSA": 3150}, {"binder": "SEQ ID NO 287 (designed binder) MLPAPKNLVVSRVTEDSARLSWTAPDAAFDSFTIEYHESGPVGEAIVLTVPGSERSYDLTGLKPGTEYMVWIFGVKGGFVSRPLSAIFTT", "HSA": 5500}, {"binder": "SEQ ID NO 266 (designed binder) MLPAPKNLVVSRVTEDSARLSWTAPDAAFDSFMIRYQEGTRWGEAIVLTVPGSERSYDLTGLKPGTEYIVMIAGVKGGQISLPLSAIFTT", "HSA": 2650}, {"binder": "SEQ ID NO 263 (designed binder) MLPAPKNLVVSRVTEDSARLSWTAPDAAFDSFFIGYLEPQPPGEAIVLTVPGSERSYDLTGLKPGTEYNVTIQGVKGGFPSMPLSAISTT", "HSA": 20400}, {"binder": "SEQ ID NO 281 (designed binder) MLPAPKNLVVSRVTEDSARLSWTAPDAAFDSFYIDYDEIHDWGEAIVLTVPGSERSYDLTGLKPGTEYAVQIGGVKGGSFSWTLSAIFTT", "HSA": 22400}, {"binder": "SEQ ID NO 264 (designed binder) MLPAPKNLVVSRVTEDSARLSWTAPDAAFDSFRIKYQEWWVEGEAIVLTVPGSERSYDLTGLKPGTEYVVQIAGVKGGLSSYPLSAIFTT", "HSA": 2550}, {"binder": "SEQ ID NO 276 (designed binder) MLPAPKNLVVSRVTEDSARLSWTAPDAAFDSFRIDYLELTSLGEAIVLTVPGSERSYDLTGLKPGTEYPVPILGVKGGLSSWPLSAIFTT", "HSA": 12400}, {"binder": "SEQ ID NO 53 (designed binder) MLPAPKNLVVSRVTEDSARLSWTAPDAAFDSFFISYIEWWDLGEAIVLTVPGSERSYDLTGLKPGTEYHVEIFGVKGGTQSYPLSAIFTT", "HSA": 9120}, {"binder": "SEQ ID NO 292 (designed binder) MLPAPKNLVVSRVTEDSARLSWTAPDAAFDSFDIAYWELTPSGEAIELLVPGSERSYDLTGLKPGTEYRVDIIGVKGGFISEPLGATFTT", "HSA": 8850}, {"binder": "SEQ ID NO 265 (designed binder) MLPAPKNLVVSRVTEDSARLSWTAPDAAFDSFWIYYIETSHQGEAIVLTVPGSERSYDLTGLKPGTEYFVLIKGVKGGYDSVPLSAIFTT", "HSA": 3950}]}]}
